Experimental findings from patent US20080090770A1, “Modulation of Muc1 Mediated Signal Transduction” (priority 2003, published 2008) are described below.

A value given as a limit tells only on which side of the number the result lay.

This assay deals with GST-RIM2 (KIAA0751) PDZ domain 1 (human). Kind of assay: modified ELISA, plated GST-RIM2 PDZ domain, biotinylated peptide 0.001-10 µM, curve fit; Relative EC50.

YGRKKRRQRRRARGRRETWV (modifications not checked) [… (SEQ ID NO: 170)] had a concentration giving a half-maximal response (EC50) of less than 10 nM.
